Test results: IntAct's records for PubMed 31217420

B1: Acid sphingomyelinase-like phosphodiesterase 3b (Homo sapiens), Q92485-2 (parent)
chain: MRLLAWLIFLANWGGARAEPGKFWHIADLHLDPDYKVSKDPFQVCPSAGSQPVPDAGPWGDYLCDSPWALINSSIYAMKEIEPEPDFILWTGDDTPHVPDEKLGEAAVLEIVERLTKLIREVFPDTKVYAALGNHDFHPKNQFPAGSNNIYNQIAELWKPWLSNESIALFKKGAFYCEKLPGPSGAGRIVVLNTNLYYTSNALTADMADPGQQFQWLEDVLTDASKAGDMVYIVGHVPPGFFEKTQNKAWFREGFNEKYLKVVRKHHRVIAGQFFGHHHTDSFRMLYDDAGVPISAMFITPGVTPWKTTLPGVVNGANNPAIRVFEYDRATLSLKVRSPAEARGGGWEGLKCITTFPHSQLIHLPLTTEPQEG

Variants of: B1
Conditions: with INSR

Variant	effect of a mutation on the interaction
H135A	with no effect

Variants of: B1
Conditions: with INSR
Remark: another data set of the same source

Variant	effect of a mutation on the interaction
H135A	with no effect

Variants of: B1
Conditions: with CAV1, Q03135-1
Sequence of CAV1, Q03135-1 (Q03135 whole entry): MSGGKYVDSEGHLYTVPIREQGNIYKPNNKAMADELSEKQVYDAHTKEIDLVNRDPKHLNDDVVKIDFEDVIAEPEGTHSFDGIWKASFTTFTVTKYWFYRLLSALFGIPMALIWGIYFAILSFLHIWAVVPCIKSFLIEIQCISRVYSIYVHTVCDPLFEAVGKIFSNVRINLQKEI

Variant	effect of a mutation on the interaction
H135A	with no effect
